# Patent publication US20230002488A1 (SYSTIMMUNE, published 2023)
# Residue numbers refer to the chain shown, from its start.
# T1: human CD19 (human, UniProt P15391 20-291)
# T1 sequence (looked up): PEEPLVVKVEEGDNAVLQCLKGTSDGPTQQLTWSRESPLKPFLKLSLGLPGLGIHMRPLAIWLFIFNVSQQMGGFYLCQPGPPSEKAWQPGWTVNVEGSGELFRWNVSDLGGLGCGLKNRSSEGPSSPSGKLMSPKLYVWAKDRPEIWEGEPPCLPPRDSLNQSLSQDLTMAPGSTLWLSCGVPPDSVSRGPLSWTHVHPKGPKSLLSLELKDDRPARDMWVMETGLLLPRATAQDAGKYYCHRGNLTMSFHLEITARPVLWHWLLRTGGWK
# B1: SI-55H11 (antibody, human IgG1, kappa)
# heavy: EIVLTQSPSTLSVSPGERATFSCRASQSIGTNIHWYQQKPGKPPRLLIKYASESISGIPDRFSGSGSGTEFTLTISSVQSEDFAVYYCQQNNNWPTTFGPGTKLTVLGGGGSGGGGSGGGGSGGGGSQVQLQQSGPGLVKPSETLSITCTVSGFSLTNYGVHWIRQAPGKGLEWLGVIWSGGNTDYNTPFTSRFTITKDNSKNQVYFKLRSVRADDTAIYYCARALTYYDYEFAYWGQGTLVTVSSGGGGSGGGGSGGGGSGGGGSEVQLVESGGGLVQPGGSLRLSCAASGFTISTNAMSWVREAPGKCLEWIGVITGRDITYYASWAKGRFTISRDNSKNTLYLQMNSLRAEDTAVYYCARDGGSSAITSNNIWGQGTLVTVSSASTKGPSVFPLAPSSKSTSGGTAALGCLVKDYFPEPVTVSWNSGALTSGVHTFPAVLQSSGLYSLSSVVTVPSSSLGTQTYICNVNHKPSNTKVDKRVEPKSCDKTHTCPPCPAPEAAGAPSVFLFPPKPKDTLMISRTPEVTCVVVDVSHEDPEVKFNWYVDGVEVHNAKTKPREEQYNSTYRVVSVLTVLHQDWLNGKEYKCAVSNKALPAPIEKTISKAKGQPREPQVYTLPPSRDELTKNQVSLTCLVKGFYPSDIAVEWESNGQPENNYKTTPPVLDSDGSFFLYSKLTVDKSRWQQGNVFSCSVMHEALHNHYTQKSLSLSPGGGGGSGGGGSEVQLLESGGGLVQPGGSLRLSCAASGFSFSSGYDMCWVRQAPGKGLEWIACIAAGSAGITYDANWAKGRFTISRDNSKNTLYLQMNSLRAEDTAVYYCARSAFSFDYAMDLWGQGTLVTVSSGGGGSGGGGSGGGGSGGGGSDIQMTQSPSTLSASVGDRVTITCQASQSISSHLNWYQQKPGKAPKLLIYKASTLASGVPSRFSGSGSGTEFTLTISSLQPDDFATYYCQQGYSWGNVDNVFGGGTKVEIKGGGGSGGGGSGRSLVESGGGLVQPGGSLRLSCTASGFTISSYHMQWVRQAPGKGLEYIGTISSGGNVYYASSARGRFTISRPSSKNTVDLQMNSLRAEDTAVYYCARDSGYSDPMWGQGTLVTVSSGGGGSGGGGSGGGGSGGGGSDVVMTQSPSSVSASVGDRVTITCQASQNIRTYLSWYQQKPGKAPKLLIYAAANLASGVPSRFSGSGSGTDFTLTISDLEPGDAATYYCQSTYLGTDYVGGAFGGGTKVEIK
# light: ENVLTQSPASLSASPGERVTITCSASSSVSYMHWYQQKPGQAPKLWIYDTSKLASGVPSRFSGSGSGNDHTLTISSMEPEDFATYYCFQGSVYPFTFGQGTKVTVLGGGGSGGGGSGGGGSGGGGSQVTLKESGPGLVQPGQTLSLTCAFSGFSLSTSGMGVGWIRQPPGKGLEWLAHIWWDDDKRYNPALKSRLTISKDTSKNQVYLQMNSLDAEDTAVYYCARMELWSYYFDYWGQGTLVTVSSGGGGSGGGGSDVVMTQSPSTLSASVGDRVTINCQASESISSWLAWYQQKPGKAPKLLIYEASKLASGVPSRFSGSGSGTEFTLTISSLQPDDFATYYCQGYFYFISRTYVNSFGCGTKVEIKRTVAAPSVFIFPPSDEQLKSGTASVVCLLNNFYPREAKVQWKVDNALQSGNSQESVTEQDSKDSTYSLSSTLTLSKADYEKHKVYACEVTHQGLSSPVTKSFNRGECGGGGSGGGGSGGGGSQSALTQPASVSGSPGQSITISCTGTSSDVGGYNFVSWYQQHPGKAPKLMIYDVSDRPSGVSDRFSGSKSGNTASLIISGLQADDEADYYCSSYGSSSTHVIFGGGTKVTVLGGGGSGGGGSGGGGSGGGGSQVQLQESGGGLVKPGGSLSLSCAASGFTFSSYWMSWVRQAPGKGLEWVANINRDGSASYYVDSVKGRFTISRDDAKNSLYLQMNSLRAEDTAVYYCARDRGVGYFDLWGRGTLVTVSS
# notes: also called hexa-GNC antibody SI-55H11
# B2: SI-55P9 (antibody, human IgG1, kappa)
# heavy: not shown
# light: ENVLTQSPASLSASPGERVTITCSASSSVSYMHWYQQKPGQAPKLWIYDTSKLASGVPSRFSGSGSGNDHTLTISSMEPEDFATYYCFQGSVYPFTFGQGTKVTVLGGGGSGGGGSGGGGSGGGGSQVTLKESGPGLVQPGQTLRLTCAFSGFSLSTSGMGVGWIRQPPGKGLEWLAHIWWDDDKRYNPALKSRLTISKDTSKNQVYLQMNSLDAEDTAVYYCARMELWSYYFDYWGQGTLVTVSSGGGGSGGGGSDVVMTQSPSTLSASVGDRVTINCQASESISSWLAWYQQKPGKAPKLLIYEASKLASGVPSRFSGSGSGTEFTLTISSLQPDDFATYYCQGYFYFISRTYVNSFGGGTKVEIKRTVAAPSVFIFPPSDEQLKSGTASVVCLLNNFYPREAKVQWKVDNALQSGNSQESVTEQDSKDSTYSLSSTLTLSKADYEKHKVYACEVTHQGLSSPVTKSFNRGEC
# notes: Penta-specific: D1 humanized anti-EGFR H7 scFv, D2 CD3, D3 PD-L1, D4 4-1BB, D6 CD19
# B3: SI-35E20 (antibody)
# chain 1: not shown
# chain 2: AYDMTQSPSSVSASVGDRVTIKCQASEDIYSFLAWYQQKPGKAPKLLIHSASSLASGVPSRFSGSGSGTDFTLTISSLQPEDFATYYCQQGYGKNNVDNAFGGGTKVEIKRTVAAPSVFIFPPSDEQLKSGTASVVCLLNNFYPREAKVQWKVDNALQSGNSQESVTEQDSKDSTYSLSSTLTLSKADYEKHKVYACEVTHQGLSSPVTKSFNRGEC
# B4: SI-55H12 (antibody, human IgG1, kappa)
# heavy: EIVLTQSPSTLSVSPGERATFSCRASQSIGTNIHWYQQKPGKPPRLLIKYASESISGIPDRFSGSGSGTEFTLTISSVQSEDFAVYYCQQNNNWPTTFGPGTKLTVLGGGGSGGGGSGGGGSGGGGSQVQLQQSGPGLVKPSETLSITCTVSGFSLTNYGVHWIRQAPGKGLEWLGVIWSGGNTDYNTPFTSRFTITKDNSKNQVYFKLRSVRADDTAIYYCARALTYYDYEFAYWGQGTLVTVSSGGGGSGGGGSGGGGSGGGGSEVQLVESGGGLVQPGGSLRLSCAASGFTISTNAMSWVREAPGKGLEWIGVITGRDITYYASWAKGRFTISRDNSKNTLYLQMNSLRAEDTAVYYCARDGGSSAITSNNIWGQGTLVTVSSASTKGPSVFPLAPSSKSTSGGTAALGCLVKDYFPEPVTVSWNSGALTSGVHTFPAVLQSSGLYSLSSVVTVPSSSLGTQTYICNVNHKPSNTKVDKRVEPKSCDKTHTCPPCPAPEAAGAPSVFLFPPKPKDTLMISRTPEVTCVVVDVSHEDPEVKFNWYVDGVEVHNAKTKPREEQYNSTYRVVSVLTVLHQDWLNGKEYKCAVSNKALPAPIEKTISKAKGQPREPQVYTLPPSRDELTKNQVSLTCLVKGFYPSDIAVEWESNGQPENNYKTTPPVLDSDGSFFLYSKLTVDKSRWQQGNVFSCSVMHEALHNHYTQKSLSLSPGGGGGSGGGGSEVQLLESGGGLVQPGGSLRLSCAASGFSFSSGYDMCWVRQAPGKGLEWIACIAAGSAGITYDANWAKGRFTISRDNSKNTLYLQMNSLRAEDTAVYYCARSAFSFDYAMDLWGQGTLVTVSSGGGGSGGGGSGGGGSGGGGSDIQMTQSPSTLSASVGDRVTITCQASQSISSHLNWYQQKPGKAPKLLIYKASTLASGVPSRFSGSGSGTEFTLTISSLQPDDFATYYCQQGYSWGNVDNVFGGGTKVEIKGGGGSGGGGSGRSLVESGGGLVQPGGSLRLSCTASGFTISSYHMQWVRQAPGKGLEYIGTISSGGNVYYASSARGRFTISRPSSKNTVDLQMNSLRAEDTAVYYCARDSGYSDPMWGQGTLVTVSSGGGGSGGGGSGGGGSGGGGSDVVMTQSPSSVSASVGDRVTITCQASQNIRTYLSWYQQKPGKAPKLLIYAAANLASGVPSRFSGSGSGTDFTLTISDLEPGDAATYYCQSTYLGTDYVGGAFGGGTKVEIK
# light: B1 light with C361G
# B5: SI-38P13 (antibody, human IgG1, kappa)
# heavy: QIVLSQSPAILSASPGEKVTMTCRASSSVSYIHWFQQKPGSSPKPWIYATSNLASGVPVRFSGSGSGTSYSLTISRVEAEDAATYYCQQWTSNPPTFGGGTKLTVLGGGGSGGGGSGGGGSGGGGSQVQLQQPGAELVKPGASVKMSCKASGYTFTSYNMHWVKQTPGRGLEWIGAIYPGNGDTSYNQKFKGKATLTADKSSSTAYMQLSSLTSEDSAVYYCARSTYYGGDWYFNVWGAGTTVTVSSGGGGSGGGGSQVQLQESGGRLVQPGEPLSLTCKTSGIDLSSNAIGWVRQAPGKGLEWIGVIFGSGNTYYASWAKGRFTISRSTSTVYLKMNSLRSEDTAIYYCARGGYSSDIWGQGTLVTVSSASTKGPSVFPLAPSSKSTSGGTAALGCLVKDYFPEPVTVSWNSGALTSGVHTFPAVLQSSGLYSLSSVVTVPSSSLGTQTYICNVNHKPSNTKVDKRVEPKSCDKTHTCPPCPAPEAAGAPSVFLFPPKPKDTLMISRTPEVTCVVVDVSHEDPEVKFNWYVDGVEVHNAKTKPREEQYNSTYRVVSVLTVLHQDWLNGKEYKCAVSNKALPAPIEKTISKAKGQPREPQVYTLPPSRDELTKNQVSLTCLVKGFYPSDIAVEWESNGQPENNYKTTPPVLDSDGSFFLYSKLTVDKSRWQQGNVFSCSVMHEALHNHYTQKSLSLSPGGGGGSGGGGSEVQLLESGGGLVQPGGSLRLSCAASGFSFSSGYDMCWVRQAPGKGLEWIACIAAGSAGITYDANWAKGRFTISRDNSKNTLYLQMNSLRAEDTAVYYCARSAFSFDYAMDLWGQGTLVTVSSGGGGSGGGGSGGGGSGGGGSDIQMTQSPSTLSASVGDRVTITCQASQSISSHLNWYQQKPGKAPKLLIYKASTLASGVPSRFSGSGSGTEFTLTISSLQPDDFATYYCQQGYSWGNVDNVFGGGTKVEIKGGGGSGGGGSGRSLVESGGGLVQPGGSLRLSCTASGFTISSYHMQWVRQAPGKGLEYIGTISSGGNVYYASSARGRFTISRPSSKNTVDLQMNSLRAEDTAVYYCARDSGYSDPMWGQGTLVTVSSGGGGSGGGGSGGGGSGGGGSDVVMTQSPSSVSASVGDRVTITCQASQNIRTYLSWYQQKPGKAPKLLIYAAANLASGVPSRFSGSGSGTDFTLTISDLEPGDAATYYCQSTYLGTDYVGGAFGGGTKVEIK
# light: DPVLTQSPSSLSASVGDRVTISCQSSQSVAKNNNLAWFQQKPGQAPKLLIYSASTLAAGVPSRFSGSGSGTDFTLTISSVQPEDFATYYCSARDSGNIQSFGGGTKVEIKRTVAAPSVFIFPPSDEQLKSGTASVVCLLNNFYPREAKVQWKVDNALQSGNSQESVTEQDSKDSTYSLSSTLTLSKADYEKHKVYACEVTHQGLSSPVTKSFNRGECGGGGSGGGGSGGGGSQVTLKESGPGLVQPGQTLRLTCAFSGFSLSTSGMGVGWIRQPPGKGLEWLAHIWWDDDKRYNPALKSRLTISKDTSKNQVYLQMNSLDAEDTAVYYCARMELWSYYFDYWGQGTLVTVSSGGGGSGGGGSGGGGSGGGGSENVLTQSPASLSASPGERVTITCSASSSVSYMHWYQQKPGQAPKLWIYDTSKLASGVPSRFSGSGSGNDHTLTISSMEPEDFATYYCFQGSVYPFTFGQGTKVTVL
# B6: SI-38E17 (antibody, V domains shown)
# VH: EVQLVESGGGLVQPGGSLRLSCAASGFTISTNAMSWVRQAPGKGLEWIGVITGRDITYYASWAKGRFTISRDNSKNTLYLQMNSLRAEDTAVYYCARDGGSSAITSNNIWGQGTLVTVSS
# VL: AIQLTQSPSSLSASVGDRVTITCRASQGISSALAWYQQKPGKAPKLLIYDASSLESGVPSRFSGSGSGTDFTLTISSLQPEDFATYYCQQFNSYPFTFGPGTKVDIK
# B7: SI-39E18 (antibody)
# chain 1: not shown
# chain 2: DILMTQSPSSMSVSLGDTVSITCHSSQDINSNIGWLQQRPGKSFKGLIYHGTNLDDEVPSRFSGSGSGADYSLTISSLESEDFADYYCVQYAQFPWTFGGGTKLEIKRTVAAPSVFIFPPSDEQLKSGTASVVCLLNNFYPREAKVQWKVDNALQSGNSQESVTEQDSKDSTYSLSSTLTLSKADYEKHKVYACEVTHQGLSSPVTKSFNRGEC
# B8: SI-38P12 (antibody, human IgG1, kappa)
# heavy: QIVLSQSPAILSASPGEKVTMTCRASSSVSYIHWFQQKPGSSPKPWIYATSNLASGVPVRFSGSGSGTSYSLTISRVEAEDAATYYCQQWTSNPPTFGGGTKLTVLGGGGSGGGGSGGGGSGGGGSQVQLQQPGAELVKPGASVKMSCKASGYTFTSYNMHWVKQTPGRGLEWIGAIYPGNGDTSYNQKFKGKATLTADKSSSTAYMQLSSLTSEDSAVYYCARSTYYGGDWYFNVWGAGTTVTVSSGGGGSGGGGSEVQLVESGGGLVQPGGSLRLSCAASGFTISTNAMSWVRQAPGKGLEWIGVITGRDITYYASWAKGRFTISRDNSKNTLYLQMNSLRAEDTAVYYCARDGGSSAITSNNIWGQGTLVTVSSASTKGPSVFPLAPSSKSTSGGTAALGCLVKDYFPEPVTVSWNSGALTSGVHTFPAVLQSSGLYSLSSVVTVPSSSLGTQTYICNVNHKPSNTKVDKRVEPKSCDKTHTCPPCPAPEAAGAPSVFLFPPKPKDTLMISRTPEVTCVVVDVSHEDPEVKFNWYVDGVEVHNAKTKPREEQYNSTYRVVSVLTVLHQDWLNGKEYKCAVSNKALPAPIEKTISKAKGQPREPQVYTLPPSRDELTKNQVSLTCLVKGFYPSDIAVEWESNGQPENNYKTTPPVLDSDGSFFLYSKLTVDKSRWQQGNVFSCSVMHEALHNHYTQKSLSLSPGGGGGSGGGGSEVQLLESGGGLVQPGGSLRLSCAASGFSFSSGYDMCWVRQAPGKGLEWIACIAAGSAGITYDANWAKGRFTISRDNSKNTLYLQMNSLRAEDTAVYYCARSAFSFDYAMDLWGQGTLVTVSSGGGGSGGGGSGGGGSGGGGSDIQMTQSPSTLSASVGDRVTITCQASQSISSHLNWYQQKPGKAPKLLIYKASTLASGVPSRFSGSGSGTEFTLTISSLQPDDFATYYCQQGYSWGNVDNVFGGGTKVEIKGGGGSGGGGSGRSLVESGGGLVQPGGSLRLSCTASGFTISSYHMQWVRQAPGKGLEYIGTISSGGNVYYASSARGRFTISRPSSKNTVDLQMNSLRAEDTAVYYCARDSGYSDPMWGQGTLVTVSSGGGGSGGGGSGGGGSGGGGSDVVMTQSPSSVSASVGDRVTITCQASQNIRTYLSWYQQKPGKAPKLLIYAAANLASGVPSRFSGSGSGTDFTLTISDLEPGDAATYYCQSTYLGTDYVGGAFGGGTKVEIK
# light: B2 light
# B9: biotinylated human MICA (ligand, UniProt Q29983 24-308, looked up)
# chain: EPHSLRYNLTVLSWDGSVQSGFLTEVHLDGQPFLRCDRQKCRAKPQGQWAEDVLGNKTWDRETRDLTGNGKDLRMTLAHIKDQKEGLHSLQEIRVCEIHEDNSTRSSQHFYYDGELFLSQNLETKEWTMPQSSRAQTLAMNVRNFLKEDAMKTKTHYHAMHADCLQELRRYLKSGVVLRRTVPPMVNVTRSEASEGNITVTCRASGFYPWNITLSWRQDGVSLSHDTQQWGDVLPDGNGTYQTWVATRICQGEEQRFTCYMEHSGNHSTHPVPSGKVLVLQSHWQ
# modifications: biotinylated (site not stated)
# notes: Loaded on SA tips as ligand for SI-49P6 and SI-49P7
# B10: SI-55P3 (antibody, human IgG1, kappa)
# heavy: not shown
# light: ENVLTQSPASLSASPGERVTITCSASSSVSYMHWYQQKPGQAPKLWIYDTSKLASGVPSRFSGSGSGNDHTLTISSMEPEDFATYYCFQGSVYPFTFGQGTKVTVLGGGGSGGGGSGGGGSGGGGSQVTLKESGPGLVQPGQTLRLTCAFSGFSLSTSGMGVGWIRQPPGKGLEWLAHIWWDDDKRYNPALKSRLTISKDTSKNQVYLQMNSLDAEDTAVYYCARMELWSYYFDYWGQGTLVTVSSGGGGSGGGGSDPVLTQSPSSLSASVGDRVTISCQSSQSVAKNNNLAWFQQKPGQAPKLLIYSASTLAAGVPSRFSGSGSGTDFTLTISSVQPEDFATYYCSARDSGNIQSFGGGTKVEIKRTVAAPSVFIFPPSDEQLKSGTASVVCLLNNFYPREAKVQWKVDNALQSGNSQESVTEQDSKDSTYSLSSTLTLSKADYEKHKVYACEVTHQGLSSPVTKSFNRGEC
# notes: Penta-specific: D1 humanized anti-EGFR H1 scFv, D2 CD3, D3 PD-L1, D4 4-1BB, D6 CD19
# B11: SI-79P2 (antibody, human IgG1, kappa)
# heavy: not shown
# light: B10 light
# notes: Penta-specific: D1 humanized anti-EGFR H4 scFv, D2 CD3, D3 PD-L1, D4 4-1BB, D6 CD19
# Target: HER3 on BxPC3 cells (human, UniProt P21860 20-1342)
# Test: cell-based or functional assay
row,"TDCC EC50 (pM), BxPC3 target cells [pM]",Binder
1,0.0939,B1

# Target: T2, human EGFR (human, UniProt P00533 25-645)
# T2 construct: also called huEGFR; His-tagged human EGFR
# Test: BLI (Octet), GNC on AHC sensor, antigen as analyte, 1:1 fit
row,Kd [nM],Binder
1,7.41,B2

# Target: T3, human 4-1BB (human, UniProt Q07011 24-186)
# T3 construct: Bought antigen; construct not described
# Test: BLI (Octet), GNC on AHC sensor, 100 nM antigen as analyte, 1:1 fit
row,Kd [nM],Binder
1,4.03,B3
2,4.91,B1
3,7.87,B4
4,8.54,B5
5,8.19,B6
6,18.1,B7
7,7.55,B2
8,4.85,B8

# Target: T4, human PD-L1 (human, UniProt Q9NZQ7 19-238)
# T4 construct: Bought antigen; construct not described
# Test: as above
row,Kd [nM],Binder
1,0.379,B3
2,0.737,B1
3,0.25,B4
4,0.731,B5
5,0.524,B6
6,0.421,B7
7,0.407,B2
8,0.195,B8

# Target: T1, human CD19
# Test: as above
row,Kd [nM],Binder
1,6.8,B1
2,0.181,B5
3,1.48,B6
4,1.11,B8

# Target: human ROR1 (human, UniProt Q01973 30-403, limits assumed)
# Test: as above
row,Kd [nM],Binder
1,0.861,B3

# Target: EGFRvIII (human, UniProt P00533 25-645, limits assumed)
# Test: as above
row,Kd [nM],Binder
1,16.4,B7

# Target: T5, SI-49P7
# T5 construct: Antibody-like penta-GNC protein; NKG2D at D2, 4-1BBL trimer at D4; D1 CD3, D3 PD-L1, D6 CD19; also called αCD3×NKG2D×αPD-L1×41BBL trimer×αCD19
# Test: BLI (Octet), biotinylated MICA on SA tips, GNC protein 0-100 nM as analyte
row,Kd [nM],Binder
1,10.7,B9

# Target: T2, human EGFR
# Test: BLI (Octet), GNC on AHC sensor, His-tagged human EGFR as analyte, global 1:1 fit
row,Kd [nM],Binder
1,18.1,B10
2,4.3,B11
3,7.41,B2

# Target: T1, human CD19
# Test: BLI (Octet), GNC on AHC sensor; strong binding, dissociation too slow to quantify KD
row,binding result,Binder
1,binds,B4
2,binds,B2
